{"source": "patent US11707610B2", "about": "“Ingestible device for delivery of therapeutic agent to the gastrointestinal tract” (BIORA THERAPEUTICS, INC., priority 2019, dated 2023)", "origin": "cited, not measured here", "key": {"[1]": {"conditions": "self-administration of 360,000 units, medical observation"}, "[2]": {"conditions": "for bioavailability: by SC injection; for Approved Dosing Info: Bio Avail: Table 16, approved injection, Admin SC"}}, "note": "Read-outs that look alike come from different tables or passages of the source."}
{"substance": "Dalteparin", "values": [{"measurement": "stability at room temperature", "setting": "room temperature", "result": "stable"}, {"measurement": "outcome of overdose", "setting": "[1]", "result": "no notable sequelae"}, {"measurement": "bioavailability", "setting": "[2]", "result": "approximately 87%"}, {"measurement": "primary mode of elimination", "setting": "[2]; in vivo", "result": "kidneys"}]}
{"substance": "Human Growth Hormone [Genotropin ®]", "values": [{"measurement": "Storage temperature: time after reconstitution", "setting": "2-8° C., after reconstitution", "result": "2-8 °C 4 weeks"}]}
{"substance": "adalimumab", "values": [{"measurement": "Approved Dosing Info: Bio Avail", "setting": "[2]", "result": 64, "unit": "%"}, {"measurement": "bioavailability", "setting": "[2]", "result": 64, "unit": "%"}, {"measurement": "bioavailability", "setting": "[2]; listed as Adalimumab", "result": "approximately 64%"}, {"measurement": "half-life", "setting": "[2]; in vivo", "result": "approximately 2 weeks"}, {"measurement": "primary mode of elimination", "setting": "[2]; in vivo", "result": "intracellular catabolism"}]}
{"substance": "certolizumab-pegol [Cimzia ®]", "values": [{"measurement": "Storage temperature: time at room temp", "setting": "room temp", "result": 2, "unit": "hrs at"}]}
{"substance": "etanerecpt [Embrel ®]", "values": [{"measurement": "Storage temperature: time at 25° C.", "setting": "25° C.", "result": 14, "unit": "days"}]}
{"substance": "infliximab [Remicade ®]", "values": [{"measurement": "Storage temperature: time at 30° C.", "setting": "30° C.", "result": "to 12 months"}]}
{"substance": "semaglutide [compound 4]", "values": [{"measurement": "Approved Dosing Info: Bio Avail", "setting": "[2]", "result": 89, "unit": "%"}]}
